Target: wild-type cardiac actin (ACTC), filaments (UniProt P68032 1-377)
Assay: co-sedimentation

Kd: 5.02 µM
stoichiometry N: 0.76 mol/mol actin
B1: N-terminal C0C2 fragment of cardiac myosin binding protein-C (cMyBP-C) (domain or fragment)
chain: MPEPGKKPVSAFNKKPRSAEVTAGSAAVFEAETERSGVMVRWQRDGSDITANDKYGLAAEGKRHTLTVRDASPDDQGSYAVIAGSSKVKFDLKVTEPAPPEKAESEVAPGAPEEVPAPATELEESVSSPEGSVSVTQDGSAAEHQGAPDDPIGLFLMRPQDGEVTVGGSIVFSARVAGASLLKPPVVKWFKGKWVDLSSKVGQHLQLHDSYDRASKVYLFELHITDAQTTSAGGYRCEVSTKDKFDSCNFNLTVHEAIGSGDLDLRSAFRRTSLAGAGRRTSDSHEDAGTPDFSSLLKKRDSFRRDSKLEAPAEEDVWEILRQAPPSEYERIAFQHGVEACHRPLKRLKGMKQDEKKSTAFQKKLEPAYQVNKGHKIRLTVELADPDAEVKWLKNGQEIQMSGSKYIFESVGAKRTLTISQCSLADDAAYQCVVGGEKCSTELFVKEP

Source: publication PMC4306385 (Archives of biochemistry and biophysics, 2014)
